Data: patent US7262024

B1: New 139 (protein)
chain: MQITYTDDEIQVAKLAGKYTTEDGYIFDGGWIKKDSLSEAERAAAQAYAKEKGLTPPSTDHQDSGNTEAKGAEAIYNRVKAAKKVPLDRMPYNLQYTVEVKNGSLIIPHHDHYHNIKFEWFDEGLYEAPKGYSLEDLLATVKYYVEGGNASDHVRKNKADQDSKPDEDKEHDEVSEPTHPESDEKENHAGLNPSADNLYKPSTDTEETEEEAEDTTDEAEIPGGPSIRQNAMETLTGLKSSLLLGTKDNNTISAEVDSLLALLKESQPAPIQ
B2: VP147 (protein)
chain: MQITYTDDEIQVAKLAGKYTTEDGYIFDGGWIKKDSLSEAERAAAQAYAKEKGLTPPSTDHQDSGNTEAKGAEAIYNRVKAAKKVPLDRMPYNLQYTVEVKNGSLIIPHHDHYHNIKFEWFDEGLYEAPKGYSLEDLLATVKYYVEGGNASDHVRKNKADQDSKPDEDKEHDEVSEPTHPESDEKENHAGLNPSADNLYKPSTDTEETEEEAEDTTDEAEIPGGPSIRQNAMETLTGLKSSLLLGTKDNNTISAEVDSLLALLKESQPAPIQGGQIGQPTLPNNSLATPSPSLPINPGTSHEKHEEDGYGFDANRIIAEDESGFVMSHGDSNHYFFKKDLTEEQIKAAQKHLEEVKTSHNGLDSLSSHEQDYPGNAKEMKDLDKKIEEKIAGIMKQYGVKRESIVVNKEKNAIIYPSGDHHHADPIDEHKPVGIGHSHSNYELFKPEEGVAKKEGNKVYTGEELTNVVNLLKNSTFNNQNFTLANGQKRVSFSFPPELEKKLGINMLVKLITPDGKVLEKVSGKVFGEGVGNIANFELDQPYLPGQTFKYTIASKDYPEVSYDGTFTVPTSLAYKMASQTIFYPFHAGDTYLRVNPQFAVPKGTDALVRVFDEFHGNAYLENNYKVGEIKLPIPKLNQGTTRTAGNKIPVTFMANAYLDNQSTYIVEVPILEKENQTDKPSILPQFKRNKAQENSKLDEKVEEPKTSEKVEKEKLSETGNSTSNSTLEEVPTVDPVQEKVAKFAESYGMKLENVLFNMDGTIELYLPSGEVIKKNMADFTGEAPQGNGENKPSENGKVSTGTVENQPTENKPADSLPEAPNEKPVKPENSTDNGMLNPEGNVGSDPMLDPALEEAPAVDPVQEKLEKFTASYGLGLDSVIFNMDGTIELRLPSGEVIKKNLSDFIA
B3: VP56 (protein)
chain: MQIGQPTLPNNSLATPSPSLPINPGTSHEKHEEDGYGFDANRIIAEDESGFVMSHGDSNHYFFKKDLTEEQIKAAQKHLEEVKTSHNGLDSLSSHEQDYPGNAKEMKDLDKKIEEKIAGIMKQYGVKRESIVVNKEKNAIIYPSGDHHHADPIDEHKPVGIGHSHSNYELFKPEEGVAKKEGNKVYTGEELTNVVNLLKNSTFNNQNFTLANGQKRVSFSFPPELEKKLGINMLVKLITPDGKVLEKVSGKVFGEGVGNIANFELDQPYLPGQTFKYTIASKDYPEVSYDGTFTVPTSLAYKMASQTIFYPFHAGDTYLRVNPQFAVPKGTDALVRVFDEFHGNAYLENNYKVGEIKLPIPKLNQGTTRTAGNKIPVTFMANAYLDNQSTYIVEVPILEKENQTDKPSILPQFKRNKAQENSKLDEKVEEPKTSEKVEKEKLSETGNSTSNSTLEEVPTVDPVQEKVAKFAESYGMKLENVLFNMDGTIELYLPSGEVIKKNMADFTGEAPQGNGENKPSENGKVSTGTVENQPTENKPADSLPEAPNEKPVKPENSTDNGMLNPEGNVGSDPMLDPALEEAPAVDPVQEKLEKFTASYGLGLDSVIFNMDGTIELRLPSGEVIKKNLSDFIA

Legend:
[1] = biological target: Mouse serum rVP147-AlOH (mouse 2); assay: flow cytometry, inhibition of surface labeling by serum rVP147-AlOH (mouse 2)
[2] = biological target: Mouse serum rVP147-AlOH (mouse 1); assay: flow cytometry, inhibition of surface labeling by serum rVP147-AlOH (mouse 1)
[3] = biological target: Mouse serum rVP147-QuilA (mouse 1); assay: flow cytometry, inhibition of surface labeling by serum rVP147-QuilA (mouse 1)
[4] = biological target: Mouse serum rVP56-AlOH (mouse 2); assay: flow cytometry, inhibition of surface labeling by serum rVP56-AlOH (mouse 2)
[5] = biological target: Mouse serum rVP56-QuilA (mouse 1); assay: flow cytometry, inhibition of surface labeling by serum rVP56-QuilA (mouse 1)
[6] = biological target: Mouse serum rVP56-AlOH (mouse 1); assay: flow cytometry, inhibition of surface labeling by serum rVP56-AlOH (mouse 1)
[7] = biological target: Mouse serum rVP147-QuilA (mouse 2); assay: flow cytometry, inhibition of surface labeling by serum rVP147-QuilA (mouse 2)
[8] = biological target: Mouse serum rVP56-QuilA (mouse 2); assay: flow cytometry, inhibition of surface labeling by serum rVP56-QuilA (mouse 2)

Row | Binder | % inhibition [1] | % inhibition [2] | % inhibition [3] | % inhibition [4] | % inhibition [5] | % inhibition [6] | % inhibition [7] | % inhibition [8]
1 | B1 | 49.7% | 53.8% | 41.3% | 0% | 0.2% | 0% | 40.7% | –
2 | B2 | 99.8% | 99.7% | 99.7% | 100% | 99.5% | 99.6% | 99.6% | 99.3%
3 | B3 | 61.6% | 50% | 68.1% | 100% | 99.7% | 99.7% | 74.1% | 99.8%
